In article PMC6814260 (Chembiochem : a European journal of chemical biology, 2019):

Molecular target: the molecule itself

B1: XoxF, lanthanide-dependent methanol dehydrogenase from Methylobacterium extorquens AM1 (enzyme, UniProt C5B120 22-601, looked up)
chain: NESVLKGVANPAEQVLQTVDYANTRYSKLDQINASNVKNLQVAWTFSTGVLRGHEGSPLVVGNIMYVHTPFPNIVYALDLDQGAKIVWKYEPKQDPSVIPVMCCDTVNRGLAYADGAILLHQADTTLVSLDAKSGKVNWSVKNGDPSKGETNTATVLPVKDKVIVGISGGEFGVQCHVTAYDLKSGKKVWRGYSIGPDDQLIVDPEKTTSLGKPIGKDSSLKTWEGDQWKTGGGCTWGWFSYDPKLDLMYYGSGNPSTWNPKQRPGDNKWSMTIWARNPDTGMAKWVYQMTPHDEWDFDGINEMILTDQKFDGKDRPLLTHFDRNGFGYTLDRATGEVLVAEKFDPVVNWATKVDLDKGSKTYGRPLVVSKYSTEQNGEDVNSKGICPAALGTKDQQPAAFSPKTGLFYVPTNHVCMDYEPFRVTYTPGQPYVGATLSMYPAPGSHGGMGNFIAWDNLQGKIKWSNPEQFSAWGGALATAGDVVFYGTLEGFLKAVDSKTGKELYKFKTPSGIIGNVMTYEHKGKQHVAVLSGVGGWAGIGLAAGLTDPNAGLGAVGGYAALSSYTNLGGQLTVFSLPNN
stoichiometry N: 2
